The text below walks through data of paper PMC10113255, “PHF14 enhances DNA methylation of SMAD7 gene to promote TGF-β-driven lung adenocarcinoma metastasis”.

This series has as its target T1, PHF14 ePHD domain E430A K435A (Homo sapiens, UniProt O94880 382-499, E430A;K435A).
T1 sequence: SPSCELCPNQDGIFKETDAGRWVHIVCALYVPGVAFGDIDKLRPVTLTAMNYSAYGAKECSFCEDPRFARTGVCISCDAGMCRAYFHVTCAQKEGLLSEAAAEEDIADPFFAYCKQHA
The series is described as follows: SPR; protein immobilized on CM5; SPR: HBS-P (10 mM HEPES pH 7.4, 150 mM NaCl, 0.05% P20), 25 °C, 1:1 Langmuir fit; EMSA: LightShift kit protocol, 0.5x TBE native PAGE, buffer not stated. Particulars: protein: recombinant; tags: His (EMSA, purification method); FLAG (SPR); label: biotin (EMSA); blunt. (In SPR one partner is held on a chip, and binding of the other changes the refractive index at the surface.)

B1: CG-rich probe, unmethylated (dsDNA)
DNA 1: ACGGCTCGTCGCTACGGCTCGTCGCT
DNA 2: AGCGACGAGCCGTAGCGACGAGCCGT
One may read the Kd as the free concentration of one partner at which half of the binding sites on the other are occupied at equilibrium, for simple one-to-one binding. Regarding B1, the Kd is 275 nM.
